assay: yeast display, Sf9 membrane polyspecificity reagent, FACS + sequencing; frameworks hold sequencing errors
How it was run: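 Genes from sorted yeast were amplified by colony PCR, read by MiSeq 2 × 250 sequencing and filtered on CDR length. These cells carried a synthetic nanobody library in Saccharomyces cerevisiae BJ5465 and were sorted by FACS into low and high (top ~1%) gates on anti-HA and streptavidin fluorescence. Polyreactivity is labelled according to the gate of origin.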

| Sequence | polyreactivity (PSR sort gate) |
| --- | --- |
| QVQLVESGGGLVQAGGSLRLSCAASGRTFFSYVMGWYRPAPGKEREFVAAISRSGGNTYYADSVMGRFTISRDNAKNTVYLQMNSLKPEETAVYYCNKPQRILYDYWGHGTQVTVSS | high polyreactivity |
| QVQLVESGGGLVQAGGSLRLSCAASGRTFFVNTMGWSRQAPGKERELVAAISDSGGSTYADSVKGRFTISRDNAKNTVNLQKNSLKPEDTAVYYCAARRRYPQRFGFDYWGQGTQVTVSS | low polyreactivity |
| QVQLVESGGGLVQAGGSLRLSCAASGRTFFVYAMGWYRQAPGKERELVASITLSGGSTYYADSVKGRFTISRDNAKNTVYLQMHSLKPEDTAVYYCAKGWSRDNDREREDEYWGQGTQVTVSS | low polyreactivity |
| QVQLVESGGGLVQAGGSLRLSCAASGRTFFVYAMGWYRQAPGKVRELVAAISNTGGRTYYADSVKGRFTISRDNAKNTVYLQMNSLKPEDTAVYYCAAPYSGPYRSYEYYWGQGTQVTVSS | low polyreactivity |
| QVQLVESGGGLVQAGGSLRLSCAASGRTFFWYAMGWYRQAPGKERELVAAITYRGGGTYYADSVKGRFTISRDNAKNTVYLQMNSLKPEDTAVYYCAAEYWVGVYLYDYWGQGTQVTVSS | high polyreactivity |
| QVQLVESGGGLVQAGGSLRLSCAASGRTFFYNAMAWYRQAPGKERESTYYADSVKGRFTISRDNAKNTVYLQMNSLIPEDTAVSYCAAGTAYVAYEGDKGDYCGQGTQVTVSS | low polyreactivity |
| QVQLVESGGGLVQAGGSLRLSCAASGRTFFYNAMGWYRQAPGKERELVAAISGRGGRTYYADSVKGRFTISRDNAKNTVHLQMNSLKPEDTAVYYCAADAGPLRYDYWGQGTQVTVSS | high polyreactivity |
| QVQLVESGGGLVQAGGSLRLSCAASGRTFFYNAMGWYRQAPGKERELVAAISSGGGSTYYADSVKGRFTISRDNAKNTVYLQMNSLKPEDTAVYYCNAYKGQTGGGGRYGYWGQGTQVTVSS | high polyreactivity |
| QVQLVESGGGLVQAGGSLRLSCAASGRTFFYYAMGWYRQAPGKERELVAAISGRGGRTYYADSVKGRFTISRDNAKNTVYLQMNSLKPEDTAVYYCNTRGTRIASGHYYWGQGTQVTVSS | high polyreactivity |
| QVQLVESGGGLVQAGGSLRLSCAASGRTFGANAMGWYRQAPGKERELVAAISSSDDSTYYADSVKGRFTISRDNAKNTVYLQMNSLKPEDTAVYYCAAEDVYPQLDYWGQGTLVTVSS | low polyreactivity |
| QVQLVESGGGLVQAGGSLRLSCAASGRTFGAYSMGWYRQAPGKERELVASISRSGGSTYYADSVKGRFTISRDNAKNTVYLQMNSLKPEETAVYYCAARVYRYGAMDYWGQGTQVTVSS | high polyreactivity |
| QVQLVESGGGLVQAGGSLRLSCAASGRTFGAYTMGWYRQAPGKERELVAAINWSGGDTYYADSVKGRFTISRDNAKNTVYLQMNSLKPEDTAVYYCNAEPRYGTYDYWGQGTQVTVSS | low polyreactivity |
| QVQLVESGGGLVQAGGSLRLSCAASGRTFGDYAMGWSRQAPGKERELVAAIDVDGGSTYYADSVKGRFTISRDNAKNTVYLQMNSLKPEDTAVYYCNAQAPYWFSFYSDHKYDYWGQGTQVTVSS | low polyreactivity |
| QVQLVESGGGLVQAGGSLRLSCAASGRTFGDYAMGWYRQAPGKERELVAAISKSGGITYYADSVKGRFTISRDNAKNTVYLQMNSLKPEDTAVYYCNADGSPFYYSGYDYWGQGTQVTVSS | high polyreactivity |
| QVQLVESGGGLVQAGGSLRLSCAASGRTFGDYAMGWYRQEPGKERELVAGITGRDSTNYADSVKGRFTISRDNAKNTVYLQMNSLIREDTAVYYCNADFWYTDISYGLATYDYWGQGTQVTVSS | high polyreactivity |
| QVQLVESGGGLVQAGGSLRLSCAASGRTFGGYAMGRYRQAPGKDRQLVASISWSGGSTYYADSVKGRFTISRDNAKNTVYLQMNSLKPEDTAVYYCAARPYLSRSTRMDYWGQGTQVTVSS | low polyreactivity |
| QVQLVESGGGLVQAGGSLRLSCAASGRTFGGYAMGWYRQAPGKERELVAAIRRSGGSTYYADSVKGRFTISRDNAKNTVYLQMNSLKPEDTAVYYCNVLRFSTGGYRYVYDYDYWGQGTQVTVSS | high polyreactivity |
| QVQLVESGGGLVQAGGSLRLSCAASGRTFGGYAMGWYRQAPGTERELVAAIRSRGGRTYYADSVKGRFTISRDNAKKSVYLQMNSLKPEDTAVYYCATYGNKWGEDYWGQGTQVTVSS | high polyreactivity |
| QVQLVESGGGLVQAGGSLRLSCAASGRTFGGYTMGWYRKAPGKERELVAAISKRGGSTYYADSVKGRFTISRDNAKNTVYLQMNSLKPEDTAVYYCARDVRTVIVSTGYDYWGQGTQVTVSS | high polyreactivity |
| QVQLVESGGGLVQAGGSLRLSCAASGRTFGGYTMGWYRQAPGKERALVAAIRWSGGRTYYADSVKGRFTISRDNAKNTVYLQMNSLKPEDTAVYYCNARYVFPYYWGQGTQVTVSS | high polyreactivity |
| QVQLVESGGGLVQAGGSLRLSCAASGRTFGGYTMGWYRQAPGKERELVAAITGSGSNTYYADSVKGRFTISRDNAKNTVYLQMNSLKPEDTAVYYCAAPYSYRTWYPYGYWGQGTQVTVSS | high polyreactivity |
| QVQLVESGGGLVQAGGSLRLSCAASGRTFGIYAMGWYRQAPGKERELVASISWSGGRTYYADSVKGRFTLSRDNAKNTVYLQMNSLKPEDTAVYYCAAYGVYYPRSWQYFDWYGYWGQGTQVTVSS | high polyreactivity |

| Sequence | polyreactivity (PSR sort gate) |
| --- | --- |
| QVQLVESGGGLVQAGGSLRLSCAASGRTFGIYAMGWYRQAPGTERQMVADITSGGDTYYADSVKGRFTISRDNAKNTVYLQMNSLKPEDTAVYYCAADIYPDWIYLLYGYWGQGTQVNVSS | low polyreactivity |
| QVQLVESGGGLVQAGGSLRLSCAASGRTFGIYTMGWYRQAPGKERKLVAAISKRGSSTYYADSVKGRFTISRDNAKNTVYLQMNSLKPEDTAVYYCNARSWYIRGSQEYYYWGQGTQVTVSS | high polyreactivity |
| QVQLVESGGGLVQAGGSLRLSCAASGRTFGKNAMGWYRPAPGKERELVAAIRYRTGSTYYADSVKGRFTISRDNAKNTVYLQMNSLKPEDTAVYYCAKVGSSPLYWGQGTHVTVSS | high polyreactivity |
| QVQLVESGGGLVQAGGSLRLSCAASGRTFGKNAMGWYRQAPGKERELVAAISWSGGRTYYADSVKGRFTISRDNAKNTVYLQMNSLKPEDTAVYYCATASYRNPSDYWGQGTQVTVSS | high polyreactivity |
| QVQLVESGGGLVQAGGSLRLSCAASGRTFGKYAMGWYRQAPGKERELVAGISSRGGSTYYADSVKGRFTISRDNAKNTVYLQMNSLKPEDTAVYYCAKRPLTSNASQGDYWGQGTQVTVSS | high polyreactivity |
| QVQLVESGGGLVQAGGSLRLSCAASGRTFGKYAMGWYRQAPGKERELVATISLSGGSTYYADSVKGRFTISRDNAKNTVYLQMNSLKPEDTAVYYCAARVYTYYYDLHKRYYWGQGTQVTVSS | high polyreactivity |
| QVQLVESGGGLVQAGGSLRLSCAASGRTFGLNAMGWYRQAPGKDRELVAAISSSGGSTYYADSVKGRFTISRDNAKNTVYLQKNSLKPEDTAVYYCAKGLYRYGTAYYYWGQGTQVTVSS | high polyreactivity |
| QVQLVESGGGLVQAGGSLRLSCAASGRTFGLNAMGWYRQAPGKERELVAAIDWRGVNTYYADSVKGRFTISRDNAKNTVYLQMNSLKPEDTAVYYCNARAYGRYYWGQGTQVTVSS | high polyreactivity |
| QVQLVESGGGLVQAGGSLRLSCAASGRTFGLYAMGWYRQAPGKETELVAAISSSGGSTYYADSVKGRFTISRDNAKNTVYLQMNSLKPEDTAVYYCAKYRRVGYLYDYWGQGTQVTVSS | high polyreactivity |
| QVQLVESGGGLVQAGGSLRLSCAASGRTFGNNAMGWYRQAPGKEREFVAAITSRGGSTYYADSVKGRFTISRDNAKNTVYLQINSLKPEDTAVYYCNREYQLPSQRTEHYYWGQGTQVTVSS | low polyreactivity |
| QVQLVESGGGLVQAGGSLRLSCAASGRTFGNYAMGWYRQAPGKERELVAAISSGRSTNYADSVKRRFTISRDNGKNTVYLQMNSLKPEDTAVYYCNADWGFPDVKETGVRFDYWGQGTQVTVSW | low polyreactivity |
| QVQLVESGGGLVQAGGSLRLSCAASGRTFGPNGMGWYRQAPGKERELVAAITRRGGSTYYADSVKGRFTISRDNEKNTVYLQMNSLKPEDTAVYYCAAYSSWGGFDYWGQGTQVTVSS | low polyreactivity |
| QVQLVESGGGLVQAGGSLRLSCAASGRTFGPYAKGWYRQAPGKERELVAAITDTGSGTFYADSVKGRFTISRDNAKNTVYFQMNSLKPEDTAVYYCNAVRKYWGQGTEVTVSS | low polyreactivity |
| QVQLVESGGGLVQAGGSLRLSCAASGRTFGPYAMGWSRQAPGKERELVAAITWSGGSTYYADSVKGRFTISRDNAKNTVYLQMNSLKPEDTAVYYCAAKFSIWTLKKYYYWGQGTQVTVSS | high polyreactivity |
| QVQLVESGGGLVQAGGSLRLSCAASGRTFGPYAMGWYRQPPGKEREFVAAISYSGGSTYYADSVKGRLTISRDNAKNTVDLQMNSLKPEVTAVYYCAVDIDANSGTRDYWGQGTQVTVSS | low polyreactivity |
| QVQLVESGGGLVQAGGSLRLSCAASGRTFGPYSMGWYRQAPGKERELVAAISSSGSTTYYADSVKGRFTISRDNAKNTVYLQMNSLKPEDTAVYYCAKPSSRDSPYDYWGQGSQVTVSS | low polyreactivity |
| QVQLVESGGGLVQAGGSLRLSCAASGRTFGPYTMGGYIQAPGKEREFVAAIRSRGDTTYYADSVKGRFTISRDNAKNTVYLQMNSLKPEDTAVYYCAARSYFLVAGSRYDYWGQGTQVTVSS | high polyreactivity |
| QVQLVESGGGLVQAGGSLRLSCAASGRTFGPYTMGWYRQAPGKERELVATIRSDNTYYADSVKGRFTISRDNAKNTVYLQMNSLKPEDTAVYYCNAGYYSRYSYPYKYYYWGQGTQVTVSS | high polyreactivity |
| QVQLVESGGGLVQAGGSLRLSCAASGRTFGQHAMGWYRQAPGKDRELVASIRSGGITDYADSVKGRFTISRDNAKNTVYLQMNSLKPEDTAVYYCNAEGVWWSTRYDSWGQGTQVTVSS | low polyreactivity |
| QVQLVESGGGLVQAGGSLRLSCAASGRTFGQNTMGWYRQAPGKERELVAAIRNRGGSTYYADSVKGRFTISRDNAKKTGYVQMNSLKPEDTAVYYCAAYPYWKGDYWGQGTQVTVSS | high polyreactivity |
| QVQLVESGGGLVQAGGSLRLSCAASGRTFGQYAMGLYRQAPGKERELVAAITTRGGSTYYADSVKGRFTISRDNAKNTVYLQMNSLKPEDTAVYYCNADYPVKRRRGRDYWGQGTQVTVSS | high polyreactivity |
